From the supplement of paper PMC12042874
± gives the uncertainty stated by the source.

Assay: amyloid nucleation score (Sup35N fusion, yeast selection) (log enrichment); library NNK3; higher = more nucleation; inactive = no reads after selection
How it was run: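 Plasmid inserts were Illumina-sequenced at input and output from psi-negative yeast expressing Sup35N fused to peptides of 20 random codons. The yeast were induced with 100 μM copper sulfate for 24 hours and grown 7 days at 30°C on medium lacking adenine and uracil, and sequences with under 100 input reads were excluded. Nucleation score is the DiMSum log enrichment of output over input reads, centred on the mode score of non-aggregating sequences.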

| Substance | amyloid nucleation score |
| --- | --- |
| SMDCFYLSHCRYRPRVI | inactive |
| EYYDI | inactive |
| VMGVAPSYASTYLLVILNMG | 1.39 ± 0.15 |
| NHYCDFAVWSTFNLTLHHSL | inactive |
| KLYIQCIYPDLVVINCDSWN | 2.39 ± 0.073 |
| FLYAFLPWRCVKNFFCSKVL | inactive |
| MTSITVDYDNLDYRIAMITW | inactive |
| NHGLLTKGMISAFRII | inactive |
| CSMPWLRSSTGGGVLLIEKS | inactive |
| GCSSVRAGH | inactive |
| GSVSDGTILKLFHVSDRGTW | inactive |
| EDERNSMCTKPIRDHRLSWM | inactive |
| CYLCVAAGWSMATPLRGGLA | inactive |
| GVIWSMWIASL | inactive |
| SYYTISLRMSFTTYFCLKMS | 0.665 ± 0.13 |
| WDYILGFGHVSQRARMESFD | inactive |
| CDTSCWLLSTPLADWTIAFN | inactive |
| NICCHISKSRPYQVYFSLQL | inactive |
| YYYYDRCMRPVHSGKGVKLW | inactive |
| WLSNREVFKMYIRLVQLAWL | inactive |
| FVMFAKASRGCTVSLCVYDV | -0.37 ± 0.39 |
| GSEHYLPSYYRFFLLVFYDV | inactive |
| FRGFIAVDAVGMVTNYIIKY | 1.89 ± 0.062 |

| Substance | amyloid nucleation score |
| --- | --- |
| HGILEWMDCVLTLFTRVGMS | inactive |
| WHVEIIVHNMSFSILKNVGR | 1.65 ± 0.1 |
| LCISVPNFSLAFLSLGWLCK | inactive |
| HQVKVIVCCVTYVVQYVVMM | inactive |
| RPYSNQGGTLITSAVLGLTK | inactive |
| ILQTLQDVRVRGMDISTASL | inactive |
| DNCLNCNRCKCIYKDFWLSA | inactive |
| KEDLTSLVTLEKEALLVSDE | inactive |
| YQVSI | inactive |
| GDCFWSPDKNWIALEVFQTF | inactive |
| LRSLYSTINFKMCWICEAAS | inactive |
| NFIIWWVLDISVERIRINEV | inactive |
| HTGMHCTMGESRTSV | 0.375 ± 0.18 |
| FISRSGAVGRRS | inactive |
| SIPLGFGMLSDDKSI | inactive |
| GWHQVTGFMYAIVFVTART | inactive |
| PLTPD | inactive |
| YVWIDYSSVYMD | inactive |
| PDLTKNSWYLYSYRLV | inactive |
| YAFGGQLFAFVLRNENIFSG | 1.37 ± 0.085 |
| EFGFVNGNRAGWGYFQRRAL | -0.55 ± 2.4 |
| NKVLFYVTYLFFIRNFLV | inactive |
| STMWYYMLVVIMRSCRAGDR | 0.793 ± 0.17 |

| Substance | amyloid nucleation score |
| --- | --- |
| GRKAWDEL | inactive |
| NSLCSLVLTLIWWIKCPCDV | inactive |
| SIIGASLLNYF | inactive |
| FRSTCTFHCMERSRLRISPK | inactive |
| CNGFFCGMCCYTKRKMKYAI | inactive |
| MDRIYLHISVEVSASFMSDA | inactive |
| WVFSSNVRKYMRALRRRYSD | inactive |
| MGVICWYLRACNPQPGSNCK | inactive |
| SNEEYGGSQKETCTIGSSLG | inactive |
| WDPECSTDVISEGRGRYTEW | inactive |
| SFPFDLFGNIVW | inactive |
| GGKMMFFKIRFFC | inactive |
| KVMTDIPDV | inactive |
| LFVLGPDRLDCAQCKLLRDR | inactive |
| ESRSFCLNCQGWVSSEA | inactive |
| TDKRSGVKLNLYFITNTIFA | 2.17 ± 0.06 |
| IMCIYEGAVSMYMRVWSNMS | inactive |
| EAMPHLARGFVVFMCFFRSG | inactive |
| CPFPRLSICVACNEYDNQLS | inactive |
| CCLFADCDLRYFSNRTFFNC | inactive |
| FEDCSTLH | -0.482 ± 0.84 |
| GVSILCLVLWSMWTLGGESW | inactive |
| GVRNWG | inactive |

| Substance | amyloid nucleation score |
| --- | --- |
| SRITNHDD | inactive |
| LLDNFY | inactive |
| AMEIRNVQELSIGPGNWMET | inactive |
| FIILKYGLYM | 0.507 ± 0.14 |
| LSSWEIVSSLSHWNVYVIAR | inactive |
| GKWKIKQ | inactive |
| IVYLAVFRWGSMSKSRFGFD | inactive |
| SGVWFVGRVCELHSWFINLS | inactive |
| LMLIFRLNCG | 1.62 ± 0.097 |
| MMVIRQYFMVRVEPVHVSSG | inactive |
| RSIITGVKVDLFNLAVTVFL | 2.62 ± 0.063 |
| VIIPNFWLFEGLRAGKRRG | inactive |
| SWAVRMAGEYFRNSDMMWCA | inactive |
| FCMALRKRNFGRFMSKSKEY | inactive |
| LFVYSWKRFDGNWNKLSWNR | inactive |
| WVRCVRQGVYLRYVLLLCEI | inactive |
| SKFSSC | inactive |
| IRRQYIYHSNEYRMMHYSES | 0.179 ± 0.85 |
| PNSLRRCVSRLVPRGLPRKR | inactive |
| SSEKLMQGFKVRLVCHFLAR | inactive |
| SRFFGGRYSVLS | inactive |
| SGNHLSWYGTIE | 1.26 ± 0.086 |
| CFYGDFSSILSRKVYDYYIR | inactive |

| Substance | amyloid nucleation score |
| --- | --- |
| MIRYSVQ | 0.131 ± 0.24 |
| KNLGLA | inactive |
| WLHFCHSAPSEYFVIMRMCK | inactive |
| ILNYLRENCQKVTGRGA | -0.679 ± 0.96 |
| VSVYRRLGHIVLVIVITLAS | inactive |
| IYGTRGSIKSYDTHSGRCGR | inactive |
| LVALVRECT | inactive |
| WRYYRAYKVITHIKFLFFTE | inactive |
| TLYKSGGEFHYKGLALKSKC | inactive |
| KTLVIYYTFKIGNILHIHLF | inactive |
| SRVTSIWRGYNFINIKRGDL | -0.42 ± 1.3 |
| FYRFFDSV | inactive |
| VVLRTSLCVMWINVRHLCDP | inactive |
| RSMKLPAKTASLLH | inactive |
| FGFYSCTLGG | inactive |
| YYSKPPCVLTDVGLIWLRPY | inactive |
| PIVRRKSPPRHYENELRGYS | inactive |
| LRSKECIKMALKWLCKKYYW | inactive |
| VIFYCFSRILTYKSIVVG | inactive |
| FTYDCECALICINYT | 0.448 ± 0.27 |
| IFSNLGVVNLCRACFKYSNI | 2.92 ± 0.059 |
| LHLAMSRTLSHSPHSCV | inactive |
| FCRQGNILFY | inactive |

| Substance | amyloid nucleation score |
| --- | --- |
| IGFNA | inactive |
| LNCGSAFRDVFTVMALNTRV | -0.14 ± 0.88 |
| KGSFFLDCFGARRRIGLVKF | inactive |
| YRFVRGWFRMRIERPAAPCT | inactive |
| THVSSGYRYEEILWWHSRGW | inactive |
| VDMVGYRNLRCHSN | inactive |
| VGIRWYGFDTCRRKFGTWNI | inactive |
| SSMYISAPSLCYLDFGLEKW | inactive |
| LWEVRSEPDPDSSNKLLSRE | 0.136 ± 0.39 |
| DGSIGRGVDRRLTKSSQPAL | inactive |
| QILLFSFRVLFAGYRKIAST | inactive |
| VFASQ | 1.3 ± 0.13 |
| GYYPLYVTFNSMCEFNIQLQ | 3.11 ± 0.051 |
| SRTLTVYRVCHHIESSTNNF | inactive |
| HSFREYKRVNLYYPFYKDCL | 0.467 ± 0.13 |
| SSGLMLWFDWLLVWRGCRLR | inactive |
| SCFSSYCRYNLRLSWRQNFV | -0.474 ± 1 |
| TGKLNNFFNTFRYFYLLADY | inactive |
| LLSLIT | inactive |
| SGDNMPAWVDHMSCHKRWSG | -0.474 ± 1.1 |
| MVGFLDTFSRIAVRCSIDRW | -0.344 ± 1 |
| AVSAVCSAVCGLMSSSTDMD | 0.527 ± 0.26 |
| GGHLLGHIASVFMEFCALQC | inactive |

| Substance | amyloid nucleation score |
| --- | --- |
| STTVTGLYKNFRHYVSGRCG | inactive |
| FCACLERQTSLNF | inactive |
| GVSIGNCTMKGEVDFMVDGK | inactive |
| CTKKM | inactive |
| LTSMI | inactive |
| ASLISILLALDMSMGLSLEP | inactive |
| LGVEVSMMTWCRMSSSMLMT | inactive |
| AVMVRRYFVDWCRQEVTFHV | 0.088 ± 0.62 |
| FECDKENSSLDSPFMLAFKD | inactive |
| GWVLILKMGYFRSLWNITVL | inactive |
| ISHVNRSNLVFLYFIVVL | 0.669 ± 0.15 |
| QTNLGPFVPSYGCFLCWMEG | inactive |
| DREST | inactive |
| FWMMDYMYSVRMNFVWGYIR | inactive |
| CSGGGGKRGLLSTLTEPMRR | inactive |
| GGWIY | inactive |
| YSTVYIGSQVRVDDTLSMSA | inactive |
| RDEYYRDRLGIVNLSRCSKS | inactive |
| HWGHVHLVIRLPVMPDSDNR | inactive |
